# Data reported in US20180155451A1 (published 2018).
# T1: FcγRIIa R (human, UniProt P12318 34-217)
# T1 construct: extracellular domain; also called FcgRIIa R type; 2aR
# T1 sequence (looked up): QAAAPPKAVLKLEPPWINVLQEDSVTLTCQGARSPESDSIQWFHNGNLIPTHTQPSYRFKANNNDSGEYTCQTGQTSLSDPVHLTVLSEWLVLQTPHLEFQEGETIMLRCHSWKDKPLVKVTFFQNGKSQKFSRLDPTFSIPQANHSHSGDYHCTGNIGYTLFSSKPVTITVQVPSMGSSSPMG
# T2: FcγRIIb (human, UniProt P31994 43-217)
# T2 construct: extracellular domain; also called FcgRIIb; 2b
# T2 sequence (looked up): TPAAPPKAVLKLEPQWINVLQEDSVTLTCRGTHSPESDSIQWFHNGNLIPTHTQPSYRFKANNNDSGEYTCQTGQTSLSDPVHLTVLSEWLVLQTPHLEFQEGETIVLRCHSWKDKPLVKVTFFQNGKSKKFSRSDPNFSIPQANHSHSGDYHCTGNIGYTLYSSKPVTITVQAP
# B1: GpH7-A5/GpH7-B3 variant S298_01G/GpL16-k0 (antibody, human IgG1, kappa)
# heavy 1: not shown
# heavy 2: not shown
# light: DIVMTQSPLSLPVTPGEPASISCQASESLVHSNRNTYLHWYLQKPGQSPQLLIYKVSNRFSGVPDRFSGSGSGTDFTLKISRVEAEDVGVYYCSQNTHVPPTFGQGTKVEIERTVAAPSVFIFPPSDEQLKSGTASVVCLLNNFYPREAKVQWKVDNALQSGNSQESVTEQDSKDSTYSLSSTLTLSKADYEKHKVYACEVTHQGLSSPVTKSFNRGEC
# notes: heterodimerized antibody, mutation in the GpH7-B3 chain only; also called He Ab
# B2: GpH7-A5/GpH7-B3 variant Q295_18N/GpL16-k0 (antibody, human IgG1, kappa)
# heavy 1: not shown
# heavy 2: not shown
# light: B1 light
# notes: as for B1
# B3: GpH7-A5/GpH7-B3 variant S298_04F/GpL16-k0 (antibody, human IgG1, kappa)
# heavy 1: not shown
# heavy 2: not shown
# light: B1 light
# notes: as for B1
# B4: GpH7-A5/GpH7-B3 variant S298_05P/GpL16-k0 (antibody, human IgG1, kappa)
# heavy 1: not shown
# heavy 2: not shown
# light: B1 light
# notes: as for B1
# B5: GpH7-A5/GpH7-B3 variant Q295_16H/GpL16-k0 (antibody, human IgG1, kappa)
# heavy 1: not shown
# heavy 2: not shown
# light: B1 light
# notes: as for B1
# B6: GpH7-A5/GpH7-B3 variant S298_03V/GpL16-k0 (antibody, human IgG1, kappa)
# heavy 1: not shown
# heavy 2: not shown
# light: B1 light
# notes: as for B1
# B7: GpH7-A5/GpH7-B3 variant Y296_12R/GpL16-k0 (antibody, human IgG1, kappa)
# heavy 1: not shown
# heavy 2: not shown
# light: B1 light
# notes: as for B1
# B8: GpH7-A5/GpH7-B3 variant S298_07I/GpL16-k0 (antibody, human IgG1, kappa)
# heavy 1: not shown
# heavy 2: not shown
# light: B1 light
# notes: as for B1
# B9: GpH7-A5/GpH7-B3 variant Q295_20W/GpL16-k0 (antibody, human IgG1, kappa)
# heavy 1: not shown
# heavy 2: not shown
# light: B1 light
# notes: as for B1
# B10: GpH7-A5/GpH7-B3 variant S298_02A/GpL16-k0 (antibody, human IgG1, kappa)
# heavy 1: not shown
# heavy 2: not shown
# light: B1 light
# notes: as for B1
# B11: GpH7-A5/GpH7-B3 variant S298_09D/GpL16-k0 (antibody, human IgG1, kappa)
# heavy 1: not shown
# heavy 2: not shown
# light: B1 light
# notes: as for B1
# B12: GpH7-A5/GpH7-B3 variant Y296_11K/GpL16-k0 (antibody, human IgG1, kappa)
# heavy 1: not shown
# heavy 2: not shown
# light: B1 light
# notes: as for B1
# B13: GpH7-A5/GpH7-B3 variant Y296_03V/GpL16-k0 (antibody, human IgG1, kappa)
# heavy 1: not shown
# heavy 2: not shown
# light: B1 light
# notes: as for B1
# B14: GpH7-A5/GpH7-B3 variant Q295_15Y/GpL16-k0 (antibody, human IgG1, kappa)
# heavy 1: not shown
# heavy 2: not shown
# light: B1 light
# notes: as for B1
# B15: GpH7-A5/GpH7-B3 variant Y296_05P/GpL16-k0 (antibody, human IgG1, kappa)
# heavy 1: not shown
# heavy 2: not shown
# light: B1 light
# notes: as for B1
# B16: GpH7-A5/GpH7-B3 variant Q295_13S/GpL16-k0 (antibody, human IgG1, kappa)
# heavy 1: not shown
# heavy 2: not shown
# light: B1 light
# notes: as for B1
# B17: GpH7-A5/GpH7-B3 variant Y296_01G/GpL16-k0 (antibody, human IgG1, kappa)
# heavy 1: not shown
# heavy 2: not shown
# light: B1 light
# notes: as for B1
# B18: GpH7-A5/GpH7-B3 variant V266_16H/GpL16-k0 (antibody, human IgG1, kappa)
# heavy 1: not shown
# heavy 2: not shown
# light: B1 light
# notes: as for B1
# Biological target: T1, FcγRIIa R
# Test: SPR; He/Con_2aR divided by He/Con_2b (FcγRIIb as reference)
# Protocol: (§1) The heterodimerized antibodies He Abs in which one of the H chains was introduced with an alteration were assayed for their binding activities to each activating FcγR and inhibitory FcγR according to the method described in Example 4. […] The activating FcγRs in FIGS. 26, 27, 28, and 29 are FcγRIa, FcγRIIa (R), FcγRIIa (H), and FcγRIIIa, respectively.
# (§2) Analysis of interaction between objective antibody and the FcγR was carried out using Biacore T100 (GE Healthcare). HBS-EP+ (GE Healthcare) was used as the running buffer, and the measurement temperature was set to 25° C. Chips produced by immobilizing the antigen peptide by the amine coupling method to a Series S Sencor Chip CM5 (GE Healthcare), or alternatively, chips produced by allowing preliminarily biotinylated antigen peptides to interact with and immobilize onto a Series S Sensor Chip SA (certified) (GE Healthcare) were used. Antibodies of interest were captured onto an antigen peptide-immobilized chip, and allowed to interact to each FcγR diluted with running buffer. To regenerate and repeatedly use the chip, the antibodies captured on the chip were washed off by reacting 10 mM glycine-HCl, pH 1.5.
row,IIaR/IIb (He_2aR/2b) [ratio],Binder
1,1.23,B1
2,1.27,B2
3,1.29,B3
4,1.34,B4
5,1.3,B5
6,1.34,B6
7,1.25,B7
8,1.28,B8
9,1.35,B9
10,1.24,B10
11,1.4,B11
12,1.3,B12
13,1.21,B13
14,1.27,B14
15,1.3,B15
16,1.3,B16
17,1.21,B17
18,1.34,B18

# Biological target: T1, FcγRIIa R
# Test: SPR (Biacore), antibody captured, FcγR as analyte; relative binding
# Protocol: as §1, §2
row,He/Con_2aR (IIaR binding),Binder
1,98.8 % of GpH7-A5/GpH7-B3/GpL16-k0 (=100),B1
2,82.4 % of GpH7-A5/GpH7-B3/GpL16-k0 (=100),B2
3,84 % of GpH7-A5/GpH7-B3/GpL16-k0 (=100),B3
4,16 % of GpH7-A5/GpH7-B3/GpL16-k0 (=100),B4
5,81.3 % of GpH7-A5/GpH7-B3/GpL16-k0 (=100),B5
6,86.3 % of GpH7-A5/GpH7-B3/GpL16-k0 (=100),B6
7,99.6 % of GpH7-A5/GpH7-B3/GpL16-k0 (=100),B7
8,90.1 % of GpH7-A5/GpH7-B3/GpL16-k0 (=100),B8
9,60 % of GpH7-A5/GpH7-B3/GpL16-k0 (=100),B9
10,91.2 % of GpH7-A5/GpH7-B3/GpL16-k0 (=100),B10
11,67.8 % of GpH7-A5/GpH7-B3/GpL16-k0 (=100),B11
12,94.3 % of GpH7-A5/GpH7-B3/GpL16-k0 (=100),B12
13,96.2 % of GpH7-A5/GpH7-B3/GpL16-k0 (=100),B13
14,82.8 % of GpH7-A5/GpH7-B3/GpL16-k0 (=100),B14
15,47.7 % of GpH7-A5/GpH7-B3/GpL16-k0 (=100),B15
16,73.7 % of GpH7-A5/GpH7-B3/GpL16-k0 (=100),B16
17,95.8 % of GpH7-A5/GpH7-B3/GpL16-k0 (=100),B17
18,76.5 % of GpH7-A5/GpH7-B3/GpL16-k0 (=100),B18

# Biological target: T2, FcγRIIb
# Test: as above
# Protocol: as §1, §2
row,He/Con_2b (IIb binding),Binder
1,80.1 % of GpH7-A5/GpH7-B3/GpL16-k0 (=100),B1
2,64.9 % of GpH7-A5/GpH7-B3/GpL16-k0 (=100),B2
3,65.4 % of GpH7-A5/GpH7-B3/GpL16-k0 (=100),B3
4,11.9 % of GpH7-A5/GpH7-B3/GpL16-k0 (=100),B4
5,62.7 % of GpH7-A5/GpH7-B3/GpL16-k0 (=100),B5
6,64.5 % of GpH7-A5/GpH7-B3/GpL16-k0 (=100),B6
7,79.5 % of GpH7-A5/GpH7-B3/GpL16-k0 (=100),B7
8,70.6 % of GpH7-A5/GpH7-B3/GpL16-k0 (=100),B8
9,44.4 % of GpH7-A5/GpH7-B3/GpL16-k0 (=100),B9
10,73.4 % of GpH7-A5/GpH7-B3/GpL16-k0 (=100),B10
11,48.3 % of GpH7-A5/GpH7-B3/GpL16-k0 (=100),B11
12,72.8 % of GpH7-A5/GpH7-B3/GpL16-k0 (=100),B12
13,79.3 % of GpH7-A5/GpH7-B3/GpL16-k0 (=100),B13
14,65.4 % of GpH7-A5/GpH7-B3/GpL16-k0 (=100),B14
15,36.6 % of GpH7-A5/GpH7-B3/GpL16-k0 (=100),B15
16,56.9 % of GpH7-A5/GpH7-B3/GpL16-k0 (=100),B16
17,79.3 % of GpH7-A5/GpH7-B3/GpL16-k0 (=100),B17
18,57.2 % of GpH7-A5/GpH7-B3/GpL16-k0 (=100),B18
